This is an account of results in FireProtDB (doi:10.1371/journal.ppat.1004158).

For this data set the following is noted: Podospora anserina; pH 7.5; 25 °C; GdnHCl; optical density; whole UniProt chain shown.

B1: Heterokaryon incompatibility protein s wild type, Q03689 (protein)
chain: MSEPFGIVAGALNVAGLFNNCVDCFEYVQLGRPFGRDYERCQLRLDIAKARLSRWGEAVKINDDPRFHSDAPTDKSVQLAKSIVEEILLLFESAQKTSKRYELVADQQDLVVFEDKDMKPIGRALHRRLNDLVSRRQKQTSLAKKTAWALYDGKSLEKIVDQVARFVDELEKAFPIEAVCHKLAEIEIEEVEDEASLTILKDAAGGIDAAMSDAAAQKIDAIVGRNSAKDIRTEERARVQLGNVVTAAALHGGIRISDQTTNSVETVVGKGESRVLIGNEYGGKGFWDN
Take B1: the unfolding free energy was 2.9 kcal/mol.
